In patent publication US6372438:
Square brackets hold non-standard residues; d marks the D form. Ends that are not written are not given here. pY = N[C@@H](Cc1ccc(OP(=O)(O)O)cc1)C(=O)O

Target: 85 kD protein / PI3 kinase (phosphatidylinositol 3' kinase) of BALB/c 3T3 cells (mouse (BALB/c 3T3 cells))
Test: competition: range of peptide concentrations preincubated with 3T3 lysate before immobilised receptor m1; in vitro kinase and PI3 kinase assays

Chain of 85 kD protein / PI3 kinase (phosphatidylinositol 3' kinase) of BALB/c 3T3 cells (mouse (BALB/c 3T3 cells)) (P26450 2-724): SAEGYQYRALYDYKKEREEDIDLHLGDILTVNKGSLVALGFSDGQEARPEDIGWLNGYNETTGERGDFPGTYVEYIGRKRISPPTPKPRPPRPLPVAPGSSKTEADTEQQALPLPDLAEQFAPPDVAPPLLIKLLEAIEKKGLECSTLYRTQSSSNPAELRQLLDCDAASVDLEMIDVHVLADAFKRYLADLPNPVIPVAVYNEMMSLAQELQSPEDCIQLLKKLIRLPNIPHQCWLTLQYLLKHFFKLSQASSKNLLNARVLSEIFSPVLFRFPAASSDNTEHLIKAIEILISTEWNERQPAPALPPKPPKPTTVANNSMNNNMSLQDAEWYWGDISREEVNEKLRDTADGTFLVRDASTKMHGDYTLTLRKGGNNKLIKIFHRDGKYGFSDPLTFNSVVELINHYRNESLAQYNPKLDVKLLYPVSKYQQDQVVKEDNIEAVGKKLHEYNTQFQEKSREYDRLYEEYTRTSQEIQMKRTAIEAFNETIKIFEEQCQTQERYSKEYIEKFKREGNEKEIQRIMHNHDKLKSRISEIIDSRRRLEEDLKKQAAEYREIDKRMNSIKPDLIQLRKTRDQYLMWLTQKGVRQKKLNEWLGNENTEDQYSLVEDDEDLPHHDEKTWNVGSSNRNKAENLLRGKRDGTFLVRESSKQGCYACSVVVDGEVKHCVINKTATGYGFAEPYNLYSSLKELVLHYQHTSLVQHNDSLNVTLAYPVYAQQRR

- IC50: < 5 µM
Binder: GGYMDMSKDESID[pY]VPMLDM [peptide Y719P]
